In the supplement of paper PMC10567573:

B1: GAGE1 (parent)
chain: QPPEMIGPMRPEQFSDEVEPATPE

Variants of: B1
Test: protein stability index of a GFP-peptide fusion (GPS, HEK-293T) (PSI 1-6); higher = more stable
Conditions: c terminus: a fixed tail appended
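Also: lentivirally expressed fusions sorted by FACS into six bins by GFP to DsRed ratio, PSI derived from sequencing read proportions per bin multiplied by bin number.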

| Variant | protein stability index |
| --- | --- |
| QPPEMIGPMRPEQFSDEVEPAEPE [T22E] | 5.2 |
| QPPEMIGPMRPEQASDEVEPATPE [F14A] | 5.4 |
| QPPEMIGPMRPEQWSDEVEPATPE [F14W] | 5.65 |
| QPPEMIGPMRPEQESDEVEPATPE [F14E] | 5.49 |
| QPPEMIGPMRPEQNSDEVEPATPE [F14N] | 5.87 |
| QPPEMIGPMRPEQCSDEVEPATPE [F14C] | 5.29 |
| QPPEMIGPMRPEQGSDEVEPATPE [F14G] | 5.68 |
| QPPEMIGPMRPEQMSDEVEPATPE [F14M] | 5.57 |
| QPPEMIGPMRPEQRSDEVEPATPE [F14R] | 5.72 |
| QPPEMIGPMRPEQDSDEVEPATPE [F14D] | 5.8 |
| QPPEMIGPMRPEQPSDEVEPATPE [F14P] | 5.84 |
| QPPEMIGPMRPEQTSDEVEPATPE [F14T] | 5.81 |
| QPPEMIGPMRPEQKSDEVEPATPE [F14K] | 4.13 |
| QPPEMIGPMRPEQLSDEVEPATPE [F14L] | 5.61 |
| QPPEMIGPMRPEQQSDEVEPATPE [F14Q] | 5.56 |
| QPPEMIGPMRPEQVSDEVEPATPE [F14V] | 5.48 |
| QPPEMIGPMRPEQISDEVEPATPE [F14I] | 5.28 |
| QPPEMIGPMRPEQSSDEVEPATPE [F14S] | 5.97 |
| QPPEMIGPMRPEQHSDEVEPATPE [F14H] | 5.46 |
| QPPEMIGPMRPEQYSDEVEPATPE [F14Y] | 4.75 |
| QPPEMIGPMRPEQFSYEVEPATPE [D16Y] | 5.43 |
| QPPEMIGPMRPEQFSEEVEPATPE [D16E] | 3.25 |
| QPPEMIGPMRPEQFSVEVEPATPE [D16V] | 5.54 |
| QPPEMIGPMRPEQFSNEVEPATPE [D16N] | 5.38 |

| Variant | protein stability index |
| --- | --- |
| QPPEMIGPMRPEQFSQEVEPATPE [D16Q] | 5.6 |
| QPPEMIGPMRPEQFSIEVEPATPE [D16I] | 5.39 |
| QPPEMIGPMRPEQFSWEVEPATPE [D16W] | 5.24 |
| QPPEMIGPMRPEQFSTEVEPATPE [D16T] | 5.46 |
| QPPEMIGPMRPEQFSMEVEPATPE [D16M] | 5.32 |
| QPPEMIGPMRPEQFSPEVEPATPE [D16P] | 5.66 |
| QPPEMIGPMRPEQFSHEVEPATPE [D16H] | 5.57 |
| QPPEMIGPMRPEQFSSEVEPATPE [D16S] | 5.31 |
| QPPEMIGPMRPEQFSLEVEPATPE [D16L] | 5.32 |
| QPPEMIGPMRPEQFSFEVEPATPE [D16F] | 5.74 |
| QPPEMIGPMRPEQFSREVEPATPE [D16R] | 5.33 |
| QPPEMIGPMRPEQFSKEVEPATPE [D16K] | 5.51 |
| QPPEMIGPMRPEQFSCEVEPATPE [D16C] | 4.96 |
| QPPEMIGPMRPEQFSGEVEPATPE [D16G] | 4.98 |
| QPPEMIGPMRPEQFSAEVEPATPE [D16A] | 5.69 |
| QPPEMIGPMRPEQFSDEVEQATPE [P20Q] | 5.21 |
| QPPEMIGPMRPEQFSDEVETATPE [P20T] | 4.91 |
| QPPEMIGPMRPEQFSDEVEGATPE [P20G] | 5.36 |
| QPPEMIGPMRPEQFSDEVEEATPE [P20E] | 4.92 |
| QPPEMIGPMRPEQFSDEVEAATPE [P20A] | 4.44 |
| QPPEMIGPMRPEQFSDEVEKATPE [P20K] | 4.79 |
| QPPEMIGPMRPEQFSDEVELATPE [P20L] | 5.27 |
| QPPEMIGPMRPEQFSDEVEMATPE [P20M] | 4.65 |
| QPPEMIGPMRPEQFSDEVENATPE [P20N] | 4.75 |

| Variant | protein stability index |
| --- | --- |
| QPPEMIGPMRPEQFSDEVEHATPE [P20H] | 5.46 |
| QPPEMIGPMRPEQFSDEVEDATPE [P20D] | 5.25 |
| QPPEMIGPMRPEQFSDEVEWATPE [P20W] | 3.7 |
| QPPEMIGPMRPEQFSDEVESATPE [P20S] | 5.18 |
| QPPEMIGPMRPEQFSDEVERATPE [P20R] | 5 |
| QPPEMIGPMRPEQFSDEVEFATPE [P20F] | 4.98 |
| QPPEMIGPMRPEQFSDEVEIATPE [P20I] | 4.96 |
| QPPEMIGPMRPEQFSDEVEYATPE [P20Y] | 5.13 |
| QPPEMIGPMRPEQFSDEVECATPE [P20C] | 4.84 |
| QPPEMIGPMRPEQFSDEVEPYTPE [A21Y] | 4.08 |
| QPPEMIGPMRPEQFSDEVEPKTPE [A21K] | 5.32 |
| QPPEMIGPMRPEQFSDEVEPMTPE [A21M] | 5.17 |
| QPPEMIGPMRPEQFSDEVEPNTPE [A21N] | 4.29 |
| QPPEMIGPMRPEQFSDEVEPVTPE [A21V] | 5.34 |
| QPPEMIGPMRPEQFSDEVEPRTPE [A21R] | 5 |
| QPPEMIGPMRPEQFSDEVEPITPE [A21I] | 4.87 |
| QPPEMIGPMRPEQFSDEVEPWTPE [A21W] | 4.7 |
| QPPEMIGPMRPEQFSDEVEPQTPE [A21Q] | 4.79 |
| QPPEMIGPMRPEQFSDEVEPHTPE [A21H] | 4.66 |
| QPPEMIGPMRPEQFSDEVEPGTPE [A21G] | 4.98 |
| QPPEMIGPMRPEQFSDEVEPFTPE [A21F] | 5.05 |
| QPPEMIGPMRPEQFSDEVEPCTPE [A21C] | 4.59 |
| QPPEMIGPMRPEQFSDEVEPTTPE [A21T] | 4.83 |
| QPPEMIGPMRPEQFSDEVEPPTPE [A21P] | 4.6 |

| Variant | protein stability index |
| --- | --- |
| QPPEMIGPMRPEQFSDEVEPDTPE [A21D] | 5.12 |
| QPPEMIGPMRPEQFSDEVEPETPE [A21E] | 5.21 |
| QPPEMIGPMRPEQFSDEVEPLTPE [A21L] | 4.9 |
| QPPEMIGPMRPEQFSDEVEPSTPE [A21S] | 4.79 |
| QPPEMIGPMRPEQFTDEVEPATPE [S15T] | 5.27 |
| QPPEMIGPMRPEQFDDEVEPATPE [S15D] | 4.57 |
| QPPEMIGPMRPEQFFDEVEPATPE [S15F] | 3.19 |
| QPPEMIGPMRPEQFRDEVEPATPE [S15R] | 5.37 |
| QPPEMIGPMRPEQFNDEVEPATPE [S15N] | 5.32 |
| QPPEMIGPMRPEQFGDEVEPATPE [S15G] | 4.48 |
| QPPEMIGPMRPEQFMDEVEPATPE [S15M] | 4.22 |
| QPPEMIGPMRPEQFYDEVEPATPE [S15Y] | 4.59 |
| QPPEMIGPMRPEQFVDEVEPATPE [S15V] | 4.73 |
| QPPEMIGPMRPEQFEDEVEPATPE [S15E] | 5.49 |
| QPPEMIGPMRPEQFHDEVEPATPE [S15H] | 4.75 |
| QPPEMIGPMRPEQFPDEVEPATPE [S15P] | 4.67 |
| QPPEMIGPMRPEQFADEVEPATPE [S15A] | 4.71 |
| QPPEMIGPMRPEQFCDEVEPATPE [S15C] | 5.31 |
| QPPEMIGPMRPEQFWDEVEPATPE [S15W] | 4.8 |
| QPPEMIGPMRPEQFKDEVEPATPE [S15K] | 5.72 |
| QPPEMIGPMRPEQFIDEVEPATPE [S15I] | 5.08 |
| QPPEMIGPMRPEQFLDEVEPATPE [S15L] | 4.79 |
